These results are taken from PMC7494861, “Characterization of the nucleotide-binding domain NsrF from the BceAB-type ABC-transporter NsrFP from the human pathogen Streptococcus agalactiae” (Scientific Reports, 2020).

Holding throughout (assay): purified protein
Type in all cases: biochemical, Streptococcus agalactiae
Holding throughout (settings): 100 mM HEPES pH 7, 10 mM Mg2+, 0 mM NaCl, 30 °C, cooperative

Data set [1] deals with Nc1nc2c(ncn2[C@@H]2O[C@H](COP(=O)(O)OP(=O)(O)OP(=O)(O)O)[C@@H](O)[C@H]2O)c(=O)[nH]1.
Excerpt: (§1) malachite green phosphate release, Hill fit on SaNsrF (SaNsrFWT)
In data set [2] the test system is Nc1ccn([C@@H]2O[C@H](COP(=O)(O)OP(=O)(O)OP(=O)(O)O)[C@@H](O)[C@H]2O)c(=O)n1.
Excerpt: as §1
Data set [3] deals with O=c1ccn([C@@H]2O[C@H](COP(=O)(O)OP(=O)(O)OP(=O)(O)O)[C@@H](O)[C@H]2O)c(=O)[nH]1.
Excerpt: as §1

The term Vmax denotes the rate approached at saturating substrate. For “SaNsrF (SaNsrFWT) (Streptococcus agalactiae 2603V/R)”, the K0.5 in data set [1] is recorded as 0.69 ± 0.07 mM; in data set [2], 1.23 ± 0.20 mM; in data set [3], 0.90 ± 0.13 mM. For the same substance, the figures for the Vmax in data set [1], in data set [2] and in data set [3] were 221.6 ± 11.1 nmol/min/mg, 339.0 ± 30.4 nmol/min/mg and 314.8 ± 23.4 nmol/min/mg, respectively.
